In article PMC4852880:

Target: HMGB1b (rat, UniProt P63159 95-163)
Experiment: EMSA

Sequence of HMGB1b (P63159 95-163): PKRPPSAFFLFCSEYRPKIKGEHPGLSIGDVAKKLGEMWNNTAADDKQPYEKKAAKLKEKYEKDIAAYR

B1: J1 (structured_DNA)
DNA 1: CGCAATCCTGAGCACG
DNA 2: CGTGCTCACCGAATCG
DNA 3: GCATTCGGACTATGGC
DNA 4: GCCATAGTGGATTGCG
Does B1 bind?
Result: binds
